{"source": "patent US20130224191A1", "about": "“NOTUM PROTEIN MODULATORS AND METHODS OF USE” (priority 2010, published 2013)", "molecules": {"B1": {"name": "SC2.D2.2 (antibody, V domains shown)", "VH": "DVQLVESGGGLVQPGGSRKISCAASGFTFSSYGMHWVRQAPEKGLEWVAYISSSTVTTYYADTVKGRFTISRDNANNTLFLQMTSLRSEDTAMYYCSRQNWDGGYFDVWGAGTTVTVSS", "VL": "DIVLTQSLASLAVSLGQRATISCRASKSVSSSGYSYMHWYQQKPGQPPKLLIYLASNLESGVPARFSGSGSGTDFTLNIHPVEEEDAATYYCQHSRALPLTFGAGTKLELKR", "notes": "also called murine SC2.D2.2"}}, "key": {"[1]": {"target": "T1, Notum being secreted from the 293-Notum cells (Homo sapiens, UniProt Q6P988)", "T1 construct": "expressed in transfected cells; host or cells: 293T (293.Notum)", "T1 sequence (Q6P988 20-496)": "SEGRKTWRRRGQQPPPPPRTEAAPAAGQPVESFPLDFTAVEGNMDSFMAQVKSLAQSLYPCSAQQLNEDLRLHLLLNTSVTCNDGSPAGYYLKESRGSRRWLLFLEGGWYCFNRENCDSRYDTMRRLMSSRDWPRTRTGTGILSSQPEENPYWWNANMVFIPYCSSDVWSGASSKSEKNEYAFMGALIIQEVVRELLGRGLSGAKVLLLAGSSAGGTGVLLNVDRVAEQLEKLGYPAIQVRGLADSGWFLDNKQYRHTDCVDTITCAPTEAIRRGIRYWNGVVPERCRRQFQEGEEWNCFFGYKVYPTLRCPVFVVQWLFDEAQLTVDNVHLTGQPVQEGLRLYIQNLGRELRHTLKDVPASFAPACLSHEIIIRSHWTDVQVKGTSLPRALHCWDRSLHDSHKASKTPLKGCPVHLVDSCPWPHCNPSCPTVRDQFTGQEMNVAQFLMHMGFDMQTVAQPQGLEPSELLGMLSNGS", "experiment": "Co-culture Wnt3A assay, effector cells with 293.TCF reporter cells", "format": "cell-based", "conditions": "antibody 10 μg/mL", "description": "In order to more closely model the behavior of Notum producing cells in vivo, co-culture experiments were performed in which effector cells, either parental 293T cells (293.null) or 293T cells expressing soluble Notum (i.e., 293.Notum cells), were mixed in varying ratios with reporter 293.TCF cells. Notum activity or inhibition in the presence of antibodies was then determined from these cell mixtures after treatment with Wnt3A CM. Briefly, three different ratios of effector to reporter cells were tested: 2:1, 1:[…], corresponding to 5×10^4: 2.5×10^4, 2.5×10^4: 2.5×10^4 cells, or 2.5×10^41.0×10^4 cells per well of a 96-well plate by mixing the cells in 50 μL serum free medium per well prior to plating.\nFor the antibody antagonism experiments, the mixture of cells was plated into wells containing 25 μL of DMEM+0.2% FBS and antibody at a final concentration of 10 μg/mL. Twenty-three hours after plating, 25 μL of Wnt3A or control L-cell CM were added to each well. Eighteen hours after addition of CM, 100 μL of One-Glo solution (ProMega Corp.) was added to each well. The contents of each well were then mixed thoroughly to lyse the cells, 100 μL of lysate transferred to black 96-well plates, and the luminescence read after 5 minutes."}, "[2]": {"tested_on": "mouse lineage-depleted NTX tumor cells from SCRx-CR4", "experiment": "Cell survival/proliferation, CellTiterGlo, SCRx-CR4", "format": "cell-based, human", "conditions": "antibody 10 μg/mL, versus MOPC isotype control", "description": "(§1) To determine whether Notum protein impacts cell proliferation and/or apoptosis of human colorectal cancer cells, HCT-116 cells or mouse lineage-depleted NTX tumor cells (i.e. human tumor cells) were plated as described below and exposed to recombinant hNotum (e.g. hNotum-His or hNotum-hFc) and anti-Notum antibodies. Cell numbers were then assessed 12-14 days later.\n(§2) Cells were then incubated for 14 days at 37° C., 5% CO2 and 5% O2 and the number of viable cells was assessed using Promega's CellTiterGlo assay kit per the manufacturer's instructions. For the HCT-116 cell line (a commercially available colorectal tumor cell line), cells were plated at 2,000 cells per well in DMEM+1% FBS, followed 24-hours later by the addition of serum free DMEM containing recombinant human Notum in the presence or absence of monoclonal antibodies SC2.D2.2 or SC2.10B3. HCT-116 cells were then incubated for 12 days at 37° C., 5% CO2 and cell viability was assessed with Promega's CellTiterGlo assay kit. Higher readings are indicative of higher viable cell counts."}, "HCT-116 cells": {"tested_on": "HCT-116 cells", "experiment": "Cell survival/proliferation, CellTiterGlo, HCT-116", "format": "cell-based, human", "description": "as §1, §2"}, "macaque Notum N141D": {"tested_on": "macaque Notum N141D", "experiment": "Neutralization of point mutated macaque Notum, 4-MUH assay", "format": "biochemical", "description": "In addition to the assays described in Examples 23 and 24, a fluorescent esterase substrate, 4-methylumbelliferyl heptanoate (Sigma), can be used to measure the activity of hydrolases using standard assay conditions (Richardson and Smith, 2007, PMID: 17620441; Jacks and Kircher, 1967, PMID: 5582971). Briefly, 4-MUH was dissolved in DMSO to a final concentration of 1.2 mM. This substrate was diluted 1:10 into assay buffer (0.1M Tris, pH 7.5, 50 mM NaCl, 0.05% Brij) and incubated with defined amounts of Notum enzyme or point-mutated Notum enzymes, and enzymatic release of the fluorescent molecule 4-methylumbelliferone monitored (355 nm excitation, 460 nm emission) using a Wallac Victor3 Multilabel Counter (Perkin Elmer).\nSimilarly, the macaque residue at this position was point mutated to the human residue (N141D). […] However, these point mutants differed in their ability to be neutralized by SC2.D2.2 (FIG. 26)."}, "Notum": {"target": "T2, Notum (Homo sapiens, UniProt Q6P988)", "T2 sequence (Q6P988 20-496)": "T1 sequence (Q6P988 20-496)", "experiment": "Bio-layer interferometry on ForteBIO RED", "format": "binding", "conditions": "250, 125 and 62.5 nM antigen", "description": "Three methods were used to characterize the affinity of humanized SC2.D2.2 relative to its analogous mAb with the murine variable region. First, binding signal was measured for a fixed amount of antibody probed against serial dilutions of antigen in an ELISA format. […] Second, the affinity of murine SC2.D2.2 was measured by Biacore using surface plasmon resonance (SPR) to provide the results set forth in FIG. 32A. Based on a concentration series of 12.5, 6.25, 3.125, 1.5625, 0.78125 nM and using a 1:1 Langmuir binding model, the Kd of the antibody binding to antigen was estimated to be less than 0.1 nM. Long off-rates for this interaction made accurate determination of affinity through kinetics difficult. The murine antibody was then directly compared to the humanized derivative using bio-layer interferometry analysis on a ForteBIO RED (ForteBIO, Inc.) with a concentration series of 250, 125, and 62.5 nM antigen."}}, "data": [{"molecule": "B1", "values": [{"measurement": "Wnt3A-induced luciferase", "setting": "[1]; co-cultures of 293.Notum and 293.TCF cells", "result": "increases the amount of Wnt3A-induced luciferase"}, {"measurement": "induction of luciferase activity by Wnt3A CM", "setting": "[1]; co-cultures of 293.null and 293.TCF cells", "result": "little effect"}, {"measurement": "effect on proliferation / cell numbers", "setting": "[2]", "result": "significantly less proliferation"}, {"measurement": "effect on hNotum induced increase in cell numbers", "setting": "HCT-116 cells", "result": "blocked"}, {"measurement": "neutralization of mutant Notum protein", "setting": "macaque Notum N141D", "result": "enabled the antibody to neutralize the mutant protein"}, {"measurement": "affinity, binding curves", "setting": "Notum", "result": "excellent affinity"}]}]}
